Consider 30 sequences from the nanobody polyreactivity screen of Harvey et al. (2022).

The nature of the data set: yeast display, Sf9 membrane polyspecificity reagent, FACS + sequencing; frameworks hold sequencing errors. In a few lines:
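Polyreactivity labels are assigned by the sorting gate from which each nanobody was recovered. The gates were low and high (top ~1%), set on anti-HA fluorescence for expression and streptavidin fluorescence for reagent binding. Before sorting, galactose-induced (36–48 hours) yeast display cells were stained for 1 hour at 4 °C with 10% biotinylated, detergent-solubilized Sf9 membrane reagent.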
Take “QVQLVESGGGLVQAGGSLRLSCAASGRIIYIYAMGWYIQAPGKERELVAAITASSGSTNYADSVKGRFTISRDNAKNTVYLQMNSLKPEDTAVYYCAAAPSRTLLRQSKYYYWGQGTQVTVSS”: the “polyreactivity (PSR sort gate)” value is given as “low polyreactivity”. In the case of “QVQLVESGGGLVQAGGSLRLSCAASGRIIYKNAMGWYRQAPGKERELVAAITSSGGSTYYADSVKGRFTISRDNAKNTVYLQMYSLKPEDTAVYYCATDWPHWRKVYWFDYWGQGTQVTVSS”, the “polyreactivity (PSR sort gate)” value is given as “low polyreactivity”. The value for “QVQLVESGGGLVQAGGSLRLSCAASGRIIYNYAMGWYRQAPGKERELVAAISRGGSTNYADSVKGRFTISRDNAKNTVYLQMNSLKPEDTAVYYCAAWTYVWTRGGSPVTVQRYNYWGQGTQVTVSS” was “high polyreactivity”; that for “QVQLVESGGGLVQAGGSLRLSCAASGRIIYSYAMGWYRQAPGKERELVATITASGGRTYYADSVKGRFTISRDNAKNTVYLQMHSLKQEDSAVYYCNARYYGSFRRRYDYWGQGTQVTVSS” was “high polyreactivity”; that for “QVQLVESGGGLVQAGGSLRLSCAASGRIIYTYAMGWYRQAPGKERELVAAISWSGGSTYYADSVKGRFTISRDNAKNTVYLQMNSLKPEDTAVYFCNAAYYGYENLSKRGYWGQGTQVTVSS” was “high polyreactivity”. The value for “QVQLVESGGGLVQAGGSLRLSCAASGRILAAYTMGWYRQAPGKERELVAAITRGGSRTNYADSVKGRFTISRDNAKNTVYLQMNSLKPEDTAVYYCAATWSAYRRWGYDYWGQGTQVTVSS” was “high polyreactivity”; that for “QVQLVESGGGLVQAGGSLRLSCAASGRILASYAMGWYRQAPGKECELVAAIRYRGSTSYADSVKGRFTISRDNAKNTVYLQMNSLKPEDTAVYYCAAKWHVRGRGARYRYDYDYWGQGTQVTVSS” was “low polyreactivity”; that for “QVQLVESGGGLVQAGGSLRLSCAASGRILDWYAMGWYRQAPGTERELVASIYSTGGSSYYADSVKGRFTISRDHAKNTVYLQMNRLKPDDTAVYYCAAVIRSQDGRGYDYWGHGTQVTVSS” was “high polyreactivity”. The entry for “QVQLVESGGGLVQAGGSLRLSCAASGRILGFYAMGWYRQAPGKERELVARINWSGTRTYYADSVKGRFTISRDNAKNTVYLQMNSLKPEDTAVYYCAARRYYPYDYWGQGTQVTVSS” is “high polyreactivity”. For “QVQLVESGGGLVQAGGSLRLSCAASGRILGKYAMGWYRQAPGKERELVAAIRLRGGSPYYADSVKGRFTISRDNAKNTVYLQMNSLKPDDTAVYYCAARYWDRSQAYNYWGQGTQVTVSS”, the “polyreactivity (PSR sort gate)” value was “high polyreactivity”. The value for “QVQLVESGGGLVQAGGSLRLSCAASGRILGRYAMGWYRQAPGKERELVATITSGDDTNYADSVKGRFTISRDNAKNTVYLQMNSLKPEDTAVGYWGQGTQVTVSS” was “low polyreactivity”. The value for “QVQLVESGGGLVQAGGSLRLSCAASGRILGSYAMGWYRQAPGKERELVAAISRGGGRTYYADSVKGRFTISRDNAKNTVYLQMNSLNPEDTAVYYCNAPVTGSSSYFSQHFDYWGQGTQVTVSS” was “high polyreactivity”; that for “QVQLVESGGGLVQAGGSLRLSCAASGRILGWNAMGWYSPAPGKVRELVAGISSSGGSTYYADSVKGRFTISRHNAKNTVNIQMNSLKPEDTAVYYCAAVVWLSSANRRYYYWGQGTQVTVSS” was “high polyreactivity”. Take “QVQLVESGGGLVQAGGSLRLSCAASGRILHRYVMGWNRQAPGKERELVAAISSGGSTTYADSVKGRFTISRDNAKNTVYLQMNSLKPEATAVYYCAKYSFWRTSRMDFWGQGTQVTVSS”: the “polyreactivity (PSR sort gate)” value was “low polyreactivity”. On to “QVQLVESGGGLVQAGGSLRLSCAASGRILKRNAMGWYRQSPGKERELVAAISWSTGTTYYADSVKGRFTISRDNAKNTVYLQMNSLKPEDTAVYYCAKQIVSGRRVDRNDYWGQGTQVTVSS”, for which the “polyreactivity (PSR sort gate)” value was “low polyreactivity”. Take “QVQLVESGGGLVQAGGSLRLSCAASGRILLYNAMGWYRQAPGKERELVAAISRSGGSTYYADSVKGRFTISRDNAKNTVYLQMNSLKPEDTAVDYCAAQHGYTRYYYWGQGTQVTVSS”: the “polyreactivity (PSR sort gate)” value is listed as “high polyreactivity”.

For “QVQLVESGGGLVQAGGSLRLSCAASGRILNINAMGWYRQAPGKERELVAAITWRGGRTFYADSVKGRFTISRDNAKNTVYLQMNSLKPEDTAVYYCAASSNTWYPTGYYWGQGTQVTVSS”, the “polyreactivity (PSR sort gate)” value was “high polyreactivity”. As for “QVQLVESGGGLVQAGGSLRLSCAASGRILPFNAMGWYRPAPGKERELVAAIRWRGSSTYYADSVKGRFTISRDNAKNTVYLQMNSLKPEDTAVYYCAAPSSVRGKVISADYGYWGQGTQVTVSS”, the “polyreactivity (PSR sort gate)” value was “high polyreactivity”. The entry for “QVQLVESGGGLVQAGGSLRLSCAASGRILPGYAMGWYRQAPGKERELVAAIRGNGDSTYYADSVKGRFTISRDNAKNTVYLQMNSLKPEDTAVYYCAARRVSTIQRDSYRGRKYGYWGQGTQVTVSS” is “low polyreactivity”; for “QVQLVESGGGLVQAGGSLRLSCAASGRILPLYAMGWYRQAPGKERELVARIDSGGSTNYADSVKGRFTISRDNAKNTVYLQMNSLKPEDTAVYYCAAVVTAQAFAYFTYGYDYWGQGTQVTVSS” it is “low polyreactivity”; for “QVQLVESGGGLVQAGGSLRLSCAASGRILPSNAMGWYRQAPGKERELVAAIRSGDRTYYADSVKGRFTISRDNAKNTVYLQMNSLKPEDTAVYYCAAFYHHYYRYDYWGQGTQVTVSS” it is “low polyreactivity”. “QVQLVESGGGLVQAGGSLRLSCAASGRILPSNAMGWYRQAPGKERELVAGITSGGSTDYADSVKGRFTISRDNAKNTVYLQMNSLKPEDTAVYYCAAHPAYRDSWGEYDYWGQGTQVTVSS”: the “polyreactivity (PSR sort gate)” value was “low polyreactivity”.

Consider “QVQLVESGGGLVQAGGSLRLSCAASGRILPSNAMGWYRQATGNERELVATISSSGGDTYYADSVKGRFTNSRDNAKNTVYLQMNSLKPEDTAVYYCAADSTWEGGYKYEYWGQGTQVTVSS”, for which the “polyreactivity (PSR sort gate)” value was “low polyreactivity”. With “QVQLVESGGGLVQAGGSLRLSCAASGRILPWYAMGWYRQAPGKERELAARIRSTDSTNYADSVKGRFTISRDNAKNTVYLQMNSLKPEDTAVYYCAKVQWGFPYAWLGSDYWGQGTQVTVSS”, the “polyreactivity (PSR sort gate)” value is “low polyreactivity”. For “QVQLVESGGGLVQAGGSLRLSCAASGRILPWYAMGWYRQAPGKERELVAGISSNGGSTYYADSVKGRFTISRDNAKNTVYLQMNSLKPEDSAVYYCAALFWYWRHYPSDYWGQGTQVTVSS”, the “polyreactivity (PSR sort gate)” value was “high polyreactivity”.

Regarding “QVQLVESGGGLVQAGGSLRLSCAASGRILPYYAMGWYRPAPGKERELVAALTGGGGSTYYADSVKGRFTISRDNAKNTVYLQMNSLKPEDTAVYYCAKPRGRASLALYRFSLYYYWGQGTQVTVSS”, the “polyreactivity (PSR sort gate)” value was “high polyreactivity”. With “QVQLVESGGGLVQAGGSLRLSCAASGRILRQYAMGWYRQAPGKERELVAAITSSGGSTYYADSVKGRFTNSRDNAKNTVYLQMNSLKPEDTAVYYCAARYYPSGYRKKMYYWGQGTQVTVSS”, the “polyreactivity (PSR sort gate)” value was “high polyreactivity”. In the case of “QVQLVESGGGLVQAGGSLRLSCAASGRILRWNAMGWYRQAPGKEREMVAAIDWRGGSTYYADSVKGRFTISRDNAKNTVYLQMNSLKPEDTAVYYCAVDYYPYEVSYVRMDYWGQGTQVTVSS”, the “polyreactivity (PSR sort gate)” value is given as “low polyreactivity”. The entry for “QVQLVESGGGLVQAGGSLRLSCAASGRILSANAMGWYRQAPGKERELVAAITYSGDNTYYADSVKGRFTISRDNAKNTVYLQMNSLKPEDTAVYYCAREFQVDGGEEDYWGQGTQVTVSS” is “low polyreactivity”. The entry for “QVQLVESGGGLVQAGGSLRLSCAASGRILSFYAMGWYRQAPGKEREFVATITWSGGSTYADSVKGRFTISRDNANNSVYLQMNSLKPEDTAVYYCNAELSNYKYDYWGQGTHVTVSS” is “low polyreactivity”.
